Test results taken from patent US20080166345A1, “MEDICAMENTS COMPRISING GENE RECOMBINANT ANTIBODY AGAINST GANGLIOSIDE GD3” (KYOWA HAKKO KOGYO CO., LTD., priority 2001, published 2008).

Test: GD3 binding ELISA of transient expression (COS-7) culture supernatants
Conditions: COS-7 culture supernatant; FIG. 14, FIG. 17
Method: Each ganglioside (2 nmol) was dissolved in […] of ethanol solution containing 10 μg of dipalmitoylphosphatidylcholine (manufactured by SIGMA) and 5 μg of cholesterol (manufactured by SIGMA). In each well of a 96 well plate for ELISA (manufactured by Greiner), 20 μl of the solution (becomes 20 pmol/well) or 20 μl of the solution diluted with ethanol was respectively dispensed, followed by air-drying, and then PBS containing 1% BSA (hereinafter referred to as “1% BSA-PBS”) was added in 100 μl/well and allowed to react at room temperature for 1 hour to thereby block remaining active groups. After discarding 1% BSA-PBS, culture supernatants of transformants or diluted solutions of humanized antibodies were added in 50 μl/well and allowed to react at room temperature for 1 hour. […] After the reaction and subsequent washing with Tween-PBS, an ABTS substrate solution (a solution prepared by dissolving 0.55 g of 2,2′-azinobis(3-ethylbenzothiazoline-6-sulfonic acid) in 1 L of 0.1 M citrate buffer (pH 4.2) and adding 1 μl/ml hydrogen peroxide just before the use) was added in 50 μl/well for color development and the absorbance at 415 nm (hereinafter referred to as “OD415”) was measured. […]

B1: pT641HLCDR: anti-GD3 CDR-grafted antibody by transient expression; VH hKM641H (SEQ ID NO:9), VL hKM641L (SEQ ID NO:10) (antibody, V domains shown)
VH: EVQLVESGGDFVQPGGSLRVSCAASGFAFSHYAMSWVRQAPGKGLEWVAYISSGGSGTYYSDSVKGRFTISRDNSKNTLYLQMRSLRAEDSAVYFCTRVKLGTYYFDSWGQGTLLTVSS
VL: DIQMTQSPSSLSASVGDRVTITCSASQDISNYLNWYQQKPDKAPKLLIFYSSNLHSGVPSRFSGGGSGTDYTLTISSLQPEDIATYFCHQYSKLPWTFGQGTKVEIKR
  relative activity (%) of binding to GD3 when the activity of anti-GD3 chimeric antibody is defined as 100: about 5%
